Reference: patent US20150175678A1 (BETH ISRAEL DEACONESS MEDICAL CENTER, published 2015)

Columns and labels:
[1] = target: HIV-1 JR-FL (Clade B, R5) envelope glycoprotein gp120 (HIV-1, isolate JR-FL); experiment: cell-based or functional assay
[2] = target: HIV-1 67970 (Clade B, X4) envelope glycoprotein gp120 (HIV-1, isolate 67970); experiment: cell-based or functional assay

B1: F425-A1g8 IgA1 antibody variant expressed from CHO-K1 cells (antibody)
heavy: QEQLVESGGGVVQPGRSLRLSCEASGFIFSAFVLHWVRQAPGKGLEWVAVVWYDGNSKYYADSVKGRFTISRDTSQNTLHLQMDSLRPEDTAVYYCAREWVADDDTFDGFDVWGQGTMVTVSSASLTSPKVFPLSLCSTQPDGNVVIACLVQGFFPQEPLSVTWSESGQGVTARNFPPSQDASGDLYTTSSQLTLPATQCLAGKSVTCHVKHYTNPSQDVTVPCPVPSTPPTPSPSTPPTPSPSCCHPRLSLHRPALEDLLLGSEANLTCTLTGLRDASGVTFTWTPSSGKSAVQGPPDRDLCGCYSVSSVLSGCAEPWNHGKTFTCTAAYPESKTPLTATLSKSGNTFRPEVHLLPPPSEELALNELVTLTCLARGFSPKDVLVRWLQGSQELPREKYLTWASRQEPSQGTTTFAVTSILRVAAEDWKKGDTFSCMVGHEALPLAFTQKTIDRLAGKPTHVNVSVVMAEVDGTCY
light: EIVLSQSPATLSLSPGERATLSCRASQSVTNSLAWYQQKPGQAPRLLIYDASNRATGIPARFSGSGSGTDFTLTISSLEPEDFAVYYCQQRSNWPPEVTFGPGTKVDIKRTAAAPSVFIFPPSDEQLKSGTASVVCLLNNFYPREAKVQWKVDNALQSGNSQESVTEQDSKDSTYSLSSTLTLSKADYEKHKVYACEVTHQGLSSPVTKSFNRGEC
Neutralization of HIV-1, IC50 (TZM-bl cells, beta-galactosidase) [1]: 1.73 µg/mL
Neutralization of HIV-1, IC50 (TZM-bl cells, beta-galactosidase) [2]: 23.3 µg/mL
